Residue numbers refer to the chain shown, from its start. Numbers in names are those of the source.

Test [1] deals with T1, human mesotrypsin (catalytically active) (human, UniProt P35030 81-304).
T1 construct: mature; In the invasion assays it is the endogenous enzyme of PC3-M cells; also called active mesotrypsin; PRSS3 gene product
T1 sequence (looked up): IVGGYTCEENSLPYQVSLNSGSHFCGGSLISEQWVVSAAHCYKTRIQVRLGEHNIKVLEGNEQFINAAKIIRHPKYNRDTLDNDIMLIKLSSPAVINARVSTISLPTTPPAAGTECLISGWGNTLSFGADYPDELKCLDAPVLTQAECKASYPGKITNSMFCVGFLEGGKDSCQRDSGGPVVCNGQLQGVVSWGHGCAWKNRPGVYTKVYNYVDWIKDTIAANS
The test is described as follows: inhibition of mesotrypsin cleavage of Z-GPR-pNA; competitive inhibition fit (Equation 1).

For test [2], the target named is T1, human mesotrypsin (catalytically active). Put plainly: inhibition of mesotrypsin cleavage of Z-GPR-pNA.
Test [3] concerns the target T2, Factor XIa (human, UniProt P03951 19-625).
T2 construct: also called FXIa
The test is described as follows: inhibition of FXIa cleavage of S-2366.

The target of test [4] is T3, human Kallikrein-6 (human, UniProt Q92876 22-244). The test is described as follows: inhibition of kallikrein-6 cleavage of BOC-Phe-Ser-Arg-AMC; slow tight-binding fit.
Test [5] addresses T4, human anionic trypsin (human, UniProt P07478 24-247).
T4 construct: mature
Put plainly: inhibition of anionic trypsin cleavage of Z-GPR-pNA; slow tight-binding fit.

Test [6] deals with T5, human cationic trypsin (human, UniProt P07477 24-247).
T5 construct: mature
Put plainly: inhibition of cationic trypsin cleavage of Z-GPR-pNA; slow tight-binding fit.

In test [7] the target is T3, human Kallikrein-6. The test is described as follows: SPR, APPI held on nickel chip by its His tag, hK6 as analyte, 25° C.
Test [8] deals with T3, human Kallikrein-6. The test is described as follows: inhibition of hK6 catalytic activity, slow tight inhibition mechanism.
Test [9] concerns the target T1, human mesotrypsin (catalytically active). The test is described as follows: free energy change of association calculated from Ki of mesotrypsin inhibition (Equation 4), triple mutant cycle.
The target is the same in test [10]. The test is described as follows: inhibition of mesotrypsin cleavage of Z-GPR-pNA; slow tight-binding fit (Equation 2).
Test [11] has the same target. Put plainly: Ki against that of APPI-WT, mesotrypsin inhibition.
Test [12] has the same target. Put plainly: cell-based or functional assay.
Test [13] has the same target. Put plainly: Ki of soluble variant against APPI-WT.
For test [14] the target is unchanged. The test is described as follows: cell-based or functional assay. The source holds these as a separate data set.
Test [15] shares this target. Put plainly: inhibition constant of soluble variant; target taken as mesotrypsin.
The target in test [16] is T2, Factor XIa. The test is described as follows: by the numbers: Ki (fold) for mesotrypsin over Ki (fold) for FXIa.
Test [17] concerns the target T1, human mesotrypsin (catalytically active). Put plainly: by the numbers: Ki (fold) for mesotrypsin over Ki (fold) for this protease.
For test [18], the target named is T5, human cationic trypsin. The test is described as follows: Ki of APPI-WT over Ki of APPI-M17G/I18F/F34V, cationic trypsin.
Test [19] has as its target T2, Factor XIa. The test is described as follows: Ki of APPI-WT over Ki of APPI-M17G/I18F/F34V, FXIa.
Test [20] concerns the target T1, human mesotrypsin (catalytically active). Put plainly: inhibition of mesotrypsin cleavage of Z-GPR-pNA; slow tight-binding fit.
Test [21] deals with T4, human anionic trypsin. Put plainly: by the numbers: Ki (fold) for mesotrypsin over Ki (fold) for anionic trypsin.
Test [22] has as its target T5, human cationic trypsin. The test is described as follows: by the numbers: Ki (fold) for mesotrypsin over Ki (fold) for cationic trypsin.
The target in test [23] is T3, human Kallikrein-6. The test is described as follows: Ki of APPI-WT over Ki of APPI-M17G/I18F/F34V, kallikrein-6.
The target in test [24] is T1, human mesotrypsin (catalytically active). Put plainly: Ki of APPI-WT over Ki of APPI-M17G/I18F/F34V, mesotrypsin.
Test [25] has as its target T4, human anionic trypsin. Put plainly: Ki of APPI-WT over Ki of APPI-M17G/I18F/F34V, anionic trypsin.
The target in test [26] is T3, human Kallikrein-6. Put plainly: by the numbers: Ki (fold) for mesotrypsin over Ki (fold) for kallikrein-6.
Test [27] addresses T1, human mesotrypsin (catalytically active). Put plainly: inhibition of mesotrypsin activity.
Test [28] deals with T3, human Kallikrein-6. The test is described as follows: SPR, APPI held on nickel chip by its His tag, hK6 as analyte.
The target in test [29] is T1, human mesotrypsin (catalytically active). Put plainly: Ki against that of APPI-WT, mesotrypsin inhibition (Equation 2).
For test [30] the target is unchanged. Put plainly: Ki against that of APPI-WT, mesotrypsin inhibition (Equation 1).

B1: APPI-WT (SEQ ID NO: 25), soluble, expressed in Pichia pastoris (other)
chain: EVCSEQAETGPCRAMISRWYFDVTEGKCAPFFYGGCGGNRNNFDTEEYCMAVCGSAI
notes: Secreted from P. pastoris GS115, purified by nickel IMAC and gel filtration; also called WT APPI; not shown: N-terminal FLAG tag with the SnaBI/EcoRI-coded residues, and the C-terminal AvrII-coded residues plus His6
As for B1, the Ki in test [1] came to 131 nM; in test [2] it was 131 nM; in test [3], 0.41 nM; in [4] it was 2.23 nM; in test [5] it was 0.00174 nM; in [6], 0.00627 nM. The same molecule had an inhibitory constant (Ki) in test [8] of 2.24 nM. Further, the affinity in test [7], expressed as Kd, was 7.91 nM.

B2: APPI-M17G/I18F (SEQ ID NO: 22), soluble (designed binder)
chain: B1 chain with M15G, I16F
notes: not shown: AvrII site residues and C-terminal HIS6 tag
Consider B2, for which, in [9], the “ΔΔGa, edge I18F to M17G/I18F” value is -1.22 kcal/mol and the “ΔΔGa, edge M17G to M17G/I18F” value is -1.22 kcal/mol. The affinity in test [10] corresponds to a Ki of 0.453 nM. The “Ki (fold)” value in [11] was 290 fold. The “Kcat (s^-1) of hydrolysis of APPI by mesotrypsin (HPLC time course)” value (“Kcat (s^-1) of hydrolysis of APPI” below) in test [12] was 0.00291 s⁻¹.

B3: APPI-F34V (SEQ ID NO: 23), soluble (designed binder)
chain: B1 chain with F32V
notes: Variants were subcloned between EcoRI and AvrII of the APPI-WT pPIC9K template; not shown: AvrII site residues and C-terminal HIS6 tag
In turn, B3 had a Ki in test [1] of 50.1 nM. Also, in test [9], the “ΔΔGa, edge WT to F34V” value is -0.59 kcal/mol. In addition, the “Ki (fold)” value in test [11] came to 2.6 fold. In test [12], the “Kcat (s^-1) of hydrolysis of APPI” value is 0.0161 s⁻¹.

B4: APPIT11V/M17G/I18F/F34V (SEQ ID NO: 9), soluble (designed binder)
chain: B1 chain with T9V, M15G, I16F, F32V
notes: as for B2
Consider B4, for which the “fold improvement in affinity relative to APPI-WT” value in test [13] was roughly 2000 fold. Moreover, the “Kcat (1/s), proteolytic resistance” value in test [14] was 0.000347 s⁻¹. Besides, the Ki in test [15] was 0.0499 nM.

B5: APPI-I18F/F34V (SEQ ID NO: 20), soluble (designed binder)
chain: B1 chain with I16F, F32V
notes: as for B2
As to B5, in test [9], the “ΔΔGa, edge F34V to I18F/F34V” value is -1.67 kcal/mol and the “ΔΔGa, edge I18F to I18F/F34V” value is 0 kcal/mol. In test [10], this molecule came in with a Ki of 3.3 nM. In addition, the “Ki (fold)” value in [11] was found to be 39.8 fold. Besides, the “Kcat (s^-1) of hydrolysis of APPI” value in test [12] was 0.00535 s⁻¹.

B6: APPIT11C/M17G/I18F/F34C (SEQ ID NO: 11), soluble (designed binder)
chain: B1 chain with T9C, M15G, I16F, F32C
notes: as for B2
Regarding B6, in test [14], the “Kcat (1/s), proteolytic resistance” value was found to be 0.00521 s⁻¹. In [15], this molecule came in with a Ki of 149 nM.

B7: APPIM17C/I18F/F34C (SEQ ID NO: 12), soluble (designed binder)
chain: B1 chain with M15C, I16F, F32C
notes: as for B2
As to B7, in test [13], the “fold improvement in affinity relative to APPI-WT” value is roughly 2000 fold. Besides, the “Kcat (1/s), proteolytic resistance” value in test [14] was 0.00038 s⁻¹. Besides, in test [15], the Ki was determined as 0.0524 nM.

B8: APPI-M17G/I18F/F34V (SEQ ID NO: 8), soluble (designed binder)
chain: B1 chain with M15G, I16F, F32V
notes: also called APPI 3M; APPI^3M; not shown: AvrII site residues and C-terminal HIS6 tag
For the molecule B8, the “specificity ratio (formula not given)” value is 350000 in test [16]; 1 in test [17]; 1240 in test [21]; 1120 in test [22]; 715 in test [26]. The Ki in [3] stood at 98.4 nM; in [4], 1.09 nM; in test [5], 0.00147 nM; in [20] it was 0.0898 nM; in test [6] it was 0.00496 nM; in test [10], 0.0898 nM. In test [8], this molecule showed a Ki of 1.1 nM. Moreover, the “Ki (fold)” value in test [18] is 1.3 fold; in test [19] it was 0.00416 fold; in [23] it was 2.04 fold; in test [24], 1460 fold; in test [11] it was 1460 fold; in test [25], 1.18 fold. Moreover, in test [12], the “Kcat (s^-1) of hydrolysis of APPI” value is 0.000429 s⁻¹.

B9: APPI-I18F (SEQ ID NO: 19), soluble (designed binder)
chain: B1 chain with I16F
notes: as for B2
In [1], B9 came in with an inhibitory constant (Ki) of 3.29 nM. Moreover, the “ΔΔGa, edge WT to I18F” value in [9] is -2.26 kcal/mol. The “Ki (fold)” value in test [11] amounted to 39.8 fold. For the same molecule, the “Kcat (s^-1) of hydrolysis of APPI” value in test [12] came to 0.0104 s⁻¹.

B10: APPIM17L,I18F,S19F,F34V (SEQ ID NO: 13), soluble (designed binder)
chain: B1 chain with M15L, I16F, S17F, F32V
notes: also called APPI 3M G17L,S19F; not shown: His tag at the C-terminal
Turning to B10, in [27], the Ki stood at 5.38 nM. The molecule also yielded a Kd in test [7] of 0.351 nM. Moreover, in test [28], the “fold improvement in binding compared to APPI WT” value came to 22.5 fold.

B11: APPI-M17G (SEQ ID NO: 18), soluble (designed binder)
chain: B1 chain with M15G
notes: as for B2
Consider B11, for which the results for the Ki in test [1] and in [10] were 3.29 nM and 3.69 nM, respectively. Further, the “ΔΔGa, edge WT to M17G” value in test [9] was -2.26 kcal/mol. The “Ki (fold)” value in [29] is 34.8 fold; in [30], 39.8 fold. Moreover, the “Kcat (s^-1) of hydrolysis of APPI” value in test [12] is 0.0156 s⁻¹.

B12: APPIM17G/I18F/K29L/F34V (SEQ ID NO: 10), soluble (designed binder)
chain: B1 chain with M15G, I16F, K27L, F32V
notes: as for B2
Regarding B12, the “fold improvement in affinity relative to APPI-WT” value in [13] was roughly 1000 fold. Besides, the “Kcat (1/s), proteolytic resistance” value in test [14] was 0.000535 s⁻¹. The molecule further had a Ki in [15] of 0.0891 nM.

B13: APPI-M17G/F34V (SEQ ID NO: 21), soluble (designed binder)
chain: B1 chain with M15G, F32V
notes: as for B2
For B13, in test [9], the “ΔΔGa, edge F34V to M17G/F34V” value was -2.2 kcal/mol and the “ΔΔGa, edge M17G to M17G/F34V” value is -0.53 kcal/mol. The affinity in test [10], expressed as Ki, was 1.4 nM. Besides, in test [11], the “Ki (fold)” value turned out to be 93.6 fold. For the same molecule, the “Kcat (s^-1) of hydrolysis of APPI” value in test [12] worked out at 0.00371 s⁻¹.
